In the supplement of paper PMC9112550, “Optimization of the antimicrobial peptide Bac7 by deep mutational scanning” (BMC Biology, 2022):

Each sequence was assayed on Escherichia coli TOP10 (assay: shrunken log2 fold change of peptide-encoding DNA abundance (4.5 h post-induction vs induction); higher = less antimicrobial activity (less host growth inhibition)). Conditions: time post-induction: 4.5 h; library: site-saturation at positions 5, 18, 19, 20.
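Note: peptides expressed intracellularly from a pBAD plasmid library in pooled LB shake-flask culture, induced with 0.3% L-arabinose, DNA abundance read by NGS, three biological replicates, DESeq2 with apeglm shrinkage.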

Row | Sequence | shrunken log2 fold change
1 | RRIRHRPPRLPRPRPRPCFFPRP | -0.193
2 | RRIRHRPPRLPRPRPRPCFWPRP | -0.0857
3 | RRIRHRPPRLPRPRPRPCHKPRP | -0.0933
4 | RRIRHRPPRLPRPRPRPCIHPRP | -0.345
5 | RRIRHRPPRLPRPRPRPCIKPRP | -0.721
6 | RRIRHRPPRLPRPRPRPCIQPRP | -0.00018
7 | RRIRHRPPRLPRPRPRPCLLPRP | -0.342
8 | RRIRHRPPRLPRPRPRPCLQPRP | -0.148
9 | RRIRHRPPRLPRPRPRPCNLPRP | -0.135
10 | RRIRHRPPRLPRPRPRPCPMPRP | -0.0207
11 | RRIRHRPPRLPRPRPRPCQMPRP | -0.0239
12 | RRIRHRPPRLPRPRPRPCQWPRP | -0.0469
13 | RRIRHRPPRLPRPRPRPCRDPRP | 0.0154
14 | RRIRHRPPRLPRPRPRPCRLPRP | 0.0253
15 | RRIRHRPPRLPRPRPRPCRQPRP | -0.035
16 | RRIRHRPPRLPRPRPRPCRVPRP | -0.242
17 | RRIRHRPPRLPRPRPRPCSSPRP | 0.032
18 | RRIRHRPPRLPRPRPRPCTKPRP | 0.0647
19 | RRIRHRPPRLPRPRPRPCTYPRP | -0.634
20 | RRIRHRPPRLPRPRPRPCWKPRP | -0.119
21 | RRIRHRPPRLPRPRPRPCWYPRP | -0.0677
22 | RRIRHRPPRLPRPRPRPCYAPRP | -0.291
23 | RRIRHRPPRLPRPRPRPDAVPRP | 0.0938
24 | RRIRHRPPRLPRPRPRPDCCPRP | -0.0827
25 | RRIRHRPPRLPRPRPRPDCEPRP | -0.0807

Row | Sequence | shrunken log2 fold change
26 | RRIRHRPPRLPRPRPRPDCLPRP | -0.228
27 | RRIRHRPPRLPRPRPRPDCPPRP | 0.0615
28 | RRIRHRPPRLPRPRPRPDCSPRP | -0.284
29 | RRIRHRPPRLPRPRPRPDCTPRP | 0.0402
30 | RRIRHRPPRLPRPRPRPDFDPRP | 0.0484
31 | RRIRHRPPRLPRPRPRPDGPPRP | -0.0182
32 | RRIRHRPPRLPRPRPRPDHSPRP | -0.00651
33 | RRIRHRPPRLPRPRPRPDIWPRP | -0.11
34 | RRIRHRPPRLPRPRPRPDKIPRP | -0.042
35 | RRIRHRPPRLPRPRPRPDLAPRP | 0.0081
36 | RRIRHRPPRLPRPRPRPDPFPRP | -0.409
37 | RRIRHRPPRLPRPRPRPDPPPRP | 0.232
38 | RRIRHRPPRLPRPRPRPDPSPRP | -0.00848
39 | RRIRHRPPRLPRPRPRPDPVPRP | 0.126
40 | RRIRHRPPRLPRPRPRPDQRPRP | -0.00114
41 | RRIRHRPPRLPRPRPRPDRFPRP | -0.00476
42 | RRIRHRPPRLPRPRPRPDSIPRP | -0.0212
43 | RRIRHRPPRLPRPRPRPDSPPRP | 0.0316
44 | RRIRHRPPRLPRPRPRPDTDPRP | -0.0683
45 | RRIRHRPPRLPRPRPRPEAAPRP | 0.83
46 | RRIRHRPPRLPRPRPRPEEWPRP | 0.0893
47 | RRIRHRPPRLPRPRPRPEFEPRP | 0.0692
48 | RRIRHRPPRLPRPRPRPEHYPRP | 0.504
49 | RRIRHRPPRLPRPRPRPEKRPRP | -0.01
50 | RRIRHRPPRLPRPRPRPEKYPRP | -0.159

Row | Sequence | shrunken log2 fold change
51 | RRIRHRPPRLPRPRPRPENTPRP | 0.0466
52 | RRIRHRPPRLPRPRPRPEQVPRP | -0.0321
53 | RRIRHRPPRLPRPRPRPERFPRP | -0.0122
54 | RRIRHRPPRLPRPRPRPERNPRP | 0.036
55 | RRIRHRPPRLPRPRPRPESEPRP | -0.00193
56 | RRIRHRPPRLPRPRPRPETLPRP | -0.18
57 | RRIRHRPPRLPRPRPRPETWPRP | -0.238
58 | RRIRHRPPRLPRPRPRPEVHPRP | 0.16
59 | RRIRHRPPRLPRPRPRPEVYPRP | -0.0062
60 | RRIRHRPPRLPRPRPRPEWIPRP | -0.0632
61 | RRIRHRPPRLPRPRPRPEWYPRP | 0.0294
62 | RRIRHRPPRLPRPRPRPEYVPRP | -0.0134
63 | RRIRHRPPRLPRPRPRPEYYPRP | -0.241
64 | RRIRHRPPRLPRPRPRPFANPRP | -0.483
65 | RRIRHRPPRLPRPRPRPFAWPRP | -0.186
66 | RRIRHRPPRLPRPRPRPFEDPRP | 0.0112
67 | RRIRHRPPRLPRPRPRPFFGPRP | -0.0142
68 | RRIRHRPPRLPRPRPRPFGTPRP | -0.213
69 | RRIRHRPPRLPRPRPRPFHGPRP | -0.121
70 | RRIRHRPPRLPRPRPRPFIFPRP | -0.656
71 | RRIRHRPPRLPRPRPRPFIWPRP | -0.162
72 | RRIRHRPPRLPRPRPRPFKIPRP | -0.192
73 | RRIRHRPPRLPRPRPRPFLCPRP | -0.172
74 | RRIRHRPPRLPRPRPRPFMMPRP | -0.272
75 | RRIRHRPPRLPRPRPRPFMPPRP | -0.146
